Test results: paper PMC8044443, “M. bovis BCG Moreau N-Terminal Loss Leads to a Less Stable Dodecin With Lower Flavin Binding Capacity” (Frontiers in Cellular and Infection Microbiology, 2021)
Like-named read-outs stand apart in the source and are kept apart here.

Experiments:
[1] = target: Recombinant M. bovis BCG Moreau dodecin with C-terminal 6-His tag (M. bovis BCG Moreau); assay: SDS-PAGE and western blotting of oligomer bands
[2] = target: Recombinant M. bovis BCG Moreau dodecin with C-terminal 6-His tag (M. bovis BCG Moreau); assay: SDS-PAGE and western blotting of oligomer bands; remark: listed apart in the source
[3] = target: Native M. bovis BCG Moreau dodecin (M. bovis BCG Moreau (endogenous)); assay: SDS-PAGE and western blotting of oligomer bands; logarithmic phase mycobacterial lysates incubated 30 min at 40 or 80 °C, supernatants on SDS-PAGE, blot with anti-dodecin serum
[4] = target: Native M. bovis BCG Moreau dodecin (M. bovis BCG Moreau (endogenous)); assay: SDS-PAGE and western blotting of oligomer bands; 20 ug total proteins of mycobacterial whole cell lysates (lag, logarithmic and stationary phase; 50 mM HEPES/KOH pH 7.5, 10 mM MgCl2, 60 mM NH4Cl, 10% glycerol), 15% SDS-PAGE, blot with anti-dodecin serum
[5] = target: Recombinant M. tuberculosis H37Rv dodecin with C-terminal 6-His tag (Mycobacterium tuberculosis H37Rv) (UniProt I6XY36); assay: SDS-PAGE and western blotting of oligomer bands
[6] = target: Recombinant M. tuberculosis H37Rv dodecin with C-terminal 6-His tag (Mycobacterium tuberculosis H37Rv) (UniProt I6XY36); assay: SDS-PAGE and western blotting of oligomer bands; remark: listed apart in the source
[7] = target: the molecule itself; assay: SDS-PAGE and western blotting of oligomer bands; 20 ug total proteins of mycobacterial whole cell lysates (lag, logarithmic and stationary phase; 50 mM HEPES/KOH pH 7.5, 10 mM MgCl2, 60 mM NH4Cl, 10% glycerol), 15% SDS-PAGE, blot with anti-dodecin serum

## Recombinant M. bovis BCG Moreau dodecin with C-terminal 6-His tag (natural protein)
[1]
  stoichiometry N: 12
[2]
  stoichiometry N: 4

## Native M. bovis BCG Moreau dodecin (natural protein)
[3]
  stoichiometry N: 6
[4]
  stoichiometry N: 6

## Recombinant M. tuberculosis H37Rv dodecin with C-terminal 6-His tag (from UniProt I6XY36 1-70) (natural protein)
[5]
  stoichiometry N: 4
[6]
  stoichiometry N: 12

B1: Native M. tuberculosis H37Rv dodecin (natural protein)
chain: MSNHTYRVIEIVGTSPDGVDAAIQGGLARAAQTMRALDWFEVQSIRGHLVDGAVAHFQVTMKVGFRLEDS
notes: also called M.tb native dodecin; Tb
[7]
  stoichiometry N: 6
